According to patent US20250074982A1 (CITY OF HOPE, published 2025):

Molecular target: CS1 on MM.1S multiple myeloma cells (human, UniProt Q9NQ25 23-335)
Assay: cell-based or functional assay

- IFN-γ and TNF-α positive cells detected by intracellular cytokine staining: > 2 fold
B1: CS1-dbBiTE (anti-CS1-huOKT3 dual specific bivalent T-cell engager: intact elotuzumab clicked to intact humanized OKT3 at their reduced hinge regions) (bispecific antibody, human IgG1, kappa)
heavy: not shown
light: DIQMTQSPSSLSASVGDRVTITCKASQDVGIAVAWYQQKPGKVPKLLIYWASTRHTGVPDRFSGSGSGTDFTLTISSLQPEDVATYYCQQYSSYPYTFGQGTKVEIKRTVAAPSVFIFPPSDEQLKSGTASVVCLLNNFYPREAKVQWKVDNALQSGNSQESVTEQDSKDSTYSLSSTLTLSKADYEKHKVYACEVTHQGLSSPVTKSFNRGEC
VH: QLVQSGGGVVQPGRSLRLSCKASGYTFTRYTMHWVRQAPGKGLEWIGYINPSRGYTNYNQKVKDRFTISTDKSKSTAFLQMDSLRPEDTAVYYCARYYDDHYCLDYWGQGTPVTV
VL: DIQMTQSPSSLSASVGDRVTITCSASSSVSYMNWYQQTPGKAPKRWIYDTSKLASGVPSRFSGSGSGTDYTFTISSLQPEDIATYYCQQWSSNPFTFGQGTKLQITR
modifications: one PEG5-N3 per light chain; reduced cysteines of the heavy chain alkylated with bromoacetamide-PEG5-N3, an average of 3 PEG5-N3/heavy chain; one DBCO/light chain (bromoacetamido-DBCO on reduced cysteine); reduced cysteines alkylated with bromoacetamido-DBCO, an average of 3 DBCO/heavy chain; clicked to PEG5-N3 on huOKT3
